The source of these data is publication PMC7997955, “Bora phosphorylation substitutes in trans for T-loop phosphorylation in Aurora A to promote mitotic entry” (Nature Communications, 2021).

In general, Kd refers to the constant that tells how readily two partners part at equilibrium. For orientation: IC50 means the concentration at which inhibition is half-maximal. The low end stands for greater potency, the high end for weaker potency.

Residue numbers refer to the chain shown, from its start. Names may count otherwise.

What all share (conditions): both partners purified
For assay [1], the target named is T1, fluorescein-labeled Tpx2^1–43 polypeptide (UniProt Q9ULW0 1-43, fluorescein (FITC) label, position not stated).
T1 construct: Tpx2 (Targeting Protein for Xenopus kinesin-like protein 2), first 43 residues; also called FITC-Tpx2^1–43; source: synthetic peptide (Proteogenix)
T1 peptide (looked up): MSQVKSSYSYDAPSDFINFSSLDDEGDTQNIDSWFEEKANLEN
Kind of assay: fluorescence polarisation; direct binding: 5 nM FITC-Tpx2^1–43 with increasing AURKA; 25 mM HEPES pH 7.5, 50 mM NaCl, 10 mM MgCl2, 0.1 mg/mL BSA, 0.01% Brij, 3 mM ADP, 2 mM DTT. For orientation: In fluorescence polarisation assays a small probe gives low polarisation when free and higher when bound to something large.

Assay [2] concerns the target T2, Full-length human AURKA^T288V (human, UniProt O14965 1-403, T288V).
T2 construct: non-native residues left at the N-terminus after TEV digestion of the 6xHis-GST fusion; Aurora A kinase (AURKA), human, full length, T288V; Lacks T-loop phosphorylation; MW 45935.52 in the SPR methods; also called AURKA T-loop mutant (T288V); source: E. coli BL21 DE3 pLyS RIL, purified (glutathione sepharose, TEV cleavage, HiTrap SP, Superdex 200); not shown: 6xHis, N-terminal, cleaved; GST, …
T2 sequence: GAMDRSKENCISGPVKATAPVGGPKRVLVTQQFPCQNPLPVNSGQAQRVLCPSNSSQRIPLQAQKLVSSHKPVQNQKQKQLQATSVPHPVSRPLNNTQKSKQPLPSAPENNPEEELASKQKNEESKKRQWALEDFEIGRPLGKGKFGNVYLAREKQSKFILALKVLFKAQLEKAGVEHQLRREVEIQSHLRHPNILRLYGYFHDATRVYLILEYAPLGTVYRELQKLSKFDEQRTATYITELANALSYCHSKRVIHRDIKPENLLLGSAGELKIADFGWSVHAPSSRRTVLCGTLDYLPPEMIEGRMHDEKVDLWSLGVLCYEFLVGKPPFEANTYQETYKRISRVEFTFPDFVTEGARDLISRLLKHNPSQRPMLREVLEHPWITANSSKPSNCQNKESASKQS
Kind of assay: SPR; biotinylated AVI-Bora^1–224 or AVI-pBora^1–224 immobilised on a streptavidin chip (Biacore S200), AURKA flowed over; 25 °C; 25 mM HEPES pH 7.5, 150 mM NaCl, 20 mM MgCl2, 1 mM TCEP, 0.01% Brij 35; flow 10 µL/min; mean of n = 2; the paper says the affinities appear under-estimated.

Assay [3] concerns the target T3, Full-length human AURKA^WT (Aurora A kinase) (human, UniProt O14965 1-403, phosphothreonine at T288 (T-loop; 'WT phosphorylated')).
T3 construct: non-native residues left at the N-terminus after TEV digestion of the 6xHis-GST fusion; Aurora A kinase (AURKA), human, full length; also called AURA^WT; WT phosphorylated; source: E. coli BL21 DE3 pLyS RIL, purified (glutathione sepharose, TEV cleavage, HiTrap SP, Superdex 200); not shown: 6xHis, N-terminal, cleaved; GST, N-terminal, cleaved
T3 sequence: T2 sequence with V290T
The assay is described as above.

In assay [4] the target is T4, Full-length human AURKA^T288V (human, UniProt O14965 1-403, T288V, not phosphorylated: 0P by intact mass (Supplementary Fig. S3a)).
T4 construct: non-native residues left at the N-terminus after TEV digestion; Aurora A kinase (AURKA), human, full length, T-loop mutant T288V; source: E. coli BL21 DE3 pLysS RIL, purified (glutathione sepharose, TEV cleavage, HiTrap SP, Superdex 200); not shown: 6xHis, N-terminal, cleaved; GST, N-terminal, cleaved
T4 sequence: T2 sequence
Put plainly: fluorescence polarisation; competitive displacement: FITC-Tpx2^1–43 (5 nM) and AURKA (35 nM) kept constant, unlabeled competitor varied; 25 mM HEPES pH 7.5, 50 mM NaCl, 10 mM MgCl2, 0.1 mg/mL BSA, 0.01% Brij, 3 mM ADP, 2 mM DTT.

B1: AURKA^([T288V R255A]) (enzyme, human)
chain: T2 sequence with R257A
notes: non-native residues left at the N-terminus after TEV digestion of the 6xHis-GST fusion; Aurora A kinase (AURKA), human, full length, T288V R255A; source: E. coli BL21 DE3 pLyS RIL, purified (glutathione sepharose, TEV cleavage, HiTrap SP, Superdex 200); not shown: 6xHis, N-terminal, cleaved; GST, N-terminal, cleaved
Regarding B1, the “fold reduced binding against the other AURKA^T288V mutants” value in assay [1] was determined as 3 fold.

B2: biotinylated AVI-tagged pBora^1–224 (phosphorylated by CyclinA2-Cdk2) (domain or fragment)
chain: not shown
modifications: biotin (on the AVI tag, by BirA); phosphorylated by CyclinA2-Cdk2 (average of eight phosphorylations)
notes: As m9, phosphorylated; MW 27440 calculated from an average of eight phosphorylations; not shown: AVI, N-terminal, kept; 6xHis, N-terminal, cleaved
For the molecule B2, the figures for the Kd in assay [2] and in assay [3] were 6 µM and roughly 18 µM, respectively.

B3: biotinylated AVI-tagged Bora^1–224 (domain or fragment)
chain: not shown
modifications: biotin (on the AVI tag, by BirA)
notes: source: E. coli BL21 DE3 pLyS RIL, purified, biotinylated in vitro with 6xHis-BirA and re-purified (Superdex 200); not shown: AVI, N-terminal, kept; 6xHis, N-terminal, cleaved
Take B3: the dissociation constant Kd is 11 µM in assay [2] and roughly 52 µM in assay [3].

B4: pBora^(18–120 [S27A T52A]) (domain or fragment)
chain: not shown
modifications: phosphorylated; with ERK 2P and 3P by intact mass, 2 phosphorylations expected (S41, S112) (Supplementary Fig. S6e)
notes: non-native residues left at the N-terminus after TEV digestion; Bora, human, residues 18-120 with S27A and T52A; source: E. coli BL21 DE3 pLysS RIL, purified, then phosphorylated in vitro; not shown: 6xHis, N-terminal, cleaved
Molecule B4 displayed an IC50 in assay [4] of 0.68 µM.
